Assays:
[1] = test system: HER3, IGF1R, MET, SRC, AKT, ERK, MEK, NRAS, HRAS, caspase 3; test: Western blotting of tumor homogenates: other signaling proteins; assay type: in vivo, mouse
Procedure: To prepare whole cell lysates, cells were washed with PBS twice, mixed with 1× cell lysis buffer from Cell Signaling Technology supplemented with 2 mM PMSF and a protease inhibitor cocktail from Roche Applied Science, placed on ice for 10 min, sonicated at 0-4° C. to enhance cell lysis using a Branson Model 450 sonifier, and finally centrifuged at 13,000 g for 10 min at 4° C., and the supernatant fraction is collected as whole cell lysate. Tumor and samples were mixed with RIPA buffer (25 mM Tris-HCl, PH7.6, 150 mM NaCl, 1% Nonidet P-40, 1% sodium deoxycholate, and 0.1% SDS), which was supplemented with 2 mM PMSF, the protease inhibitor cocktail mentioned above, phosphatase inhibitor cocktail 2 and phosphatase inhibitor cocktail 3 from Sigma-Aldrich at 14.3 μl buffer per mg tissue, and homogenized in a Dounce homogenizer. The homogenates were cleared by centrifugation at 13,000 g for 15 min at 4° C.
Protein concentrations in all samples were measured using the BCA Assay Kit. For Western blotting, each sample was mixed with 4× loading dye, heated for 5 min at 95° C., and resolved by SDS-PAGE (8-12.5%). Proteins were transferred to polyvinylidene fluoride membrane, probed with specific antibodies, and detected using either Luminata Classico (Millipore) or Luminata Cresendo (Millipore). […] The beads were washed three times with IP buffer, suspended in 2× SDS loading buffer, boiled for 5 min, and analyzed by Western blotting.
SCID mice (C.B.17 SCID) were bred by the Laboratory Animal Shared Resource at Roswell Park Comprehensive Cancer Center. […] Subcutaneous tumor volume was measured using length ×width^2÷2. Tumor volume was measured three times each week. Orthotopic tumor growth was monitored by bioluminescence weekly. Mice were given D-luciferin (150 mg/kg) by ip and anesthetized with isoflurane, and tumor burden was measured by bioluminescence using the IVIS Spectrum In Vivo Imaging System (PerkinElmer). Drug treatment was started when significant tumor growth was detected. […] The mice were closely monitored for sign of adverse effects and weighed three times each week.

[2] = test system: HCT116 tumors; test: Subcutaneous HCT116 tumors in SCID mice; assay type: in vivo, mouse; conditions: sc HCT116 tumors
Procedure: SCID mice (C.B.17 SCID) were bred by the Laboratory Animal Shared Resource at Roswell Park Comprehensive Cancer Center. Male mice at 7-8 weeks of age were used. All mouse experiments were approved by the Institutional Animal Care and Use Committee at Roswell Park Comprehensive Cancer Center under protocol 1022M. We established subcutaneous tumors by inoculating 1×10^6 HCT116 cells, 4×10^6 HT29 cells, or 2×10^6 SW48 cells to the flank of each mouse in 100 μl of serum free medium. Colon patient-derived xenograft (PDX) 14650 was established from a liver metastatic lesion in a patient treated at Roswell Park Comprehensive Cancer Center. Tumor fragments (˜20 mm^3) from donor mice were implanted into the flank of each mouse subcutaneously using a trocar. Orthotopic colon tumors in mice were established by inoculating HCT116 cells stably transfected with firefly luciferase (2×10^6 cells in 50 μl of 50% serum-free medium and 50% Matrigel) to the caecum wall of each mouse. Mice in each tumor model were randomized cage-wise into treatment groups using Research Randomizer (www.randomizer.org). Subcutaneous tumor volume was measured using length ×width^2÷2. Tumor volume was measured three times each week. Orthotopic tumor growth was monitored by bioluminescence weekly. Mice were given D-luciferin (150 mg/kg) by ip and anesthetized with isoflurane, and tumor burden was measured by bioluminescence using the IVIS Spectrum In Vivo Imaging System (PerkinElmer). Drug treatment was started when significant tumor growth was detected. EP (0.5 mg/kg) was administered to mice ip once daily. […] Aderbasib (60 mg/kg) was administered to mice by gavage once daily. 5-FU (35 mg/kg) was administered to mice ip twice weekly (Monday and Thursday). EP, PEPD^G278D and 5-FU were administered to mice in PBS. Aderbasib was first dissolved in DMSO and then diluted by PBS (final 5% DMSO by volume). Each agent was administered to mice at 0.1 ml volume per 20 g body weight. When a mouse was given multiple agents on the same day, the agents were dosed at approximately 30 min intervals. The mice were closely monitored for sign of adverse effects and weighed three times each week. Mice were sacrificed 24-48 hours after the last treatment, at which point the tumors were promptly removed, snap frozen and stored at −80° C. for later analysis. Some tumors were fixed in 10% buffered formalin, paraffin embedded, cut at 4 μm, and stained with hematoxylin and eosin (H & E) for histological analysis.

| Molecule | expression or phosphorylation of the proteins analyzed in tumors ([1]; HCT116 and HT29 tumors, single agent) | tumor growth ([2]; aderbasib alone 60 mg/kg by gavage daily) | ERK phosphorylation in tumors ([1]; SW48 tumors, 24 h after the final dose) | tumor growth ([2]; EP plus PEPD^G278D 4 mg/kg ip three times weekly, or cetuximab 15 mg/kg ip twice weekly) | tumor growth ([2]; EP plus PEPD^G278D 8 mg/kg ip thrice weekly) |
| --- | --- | --- | --- | --- | --- |
| COC(=O)N1CC2(CC2)C[C@H](C(=O)NO)[C@H]1C(=O)N1CC=C(c2ccccc2)CC1 [aderbasib] | neither EP nor aderbasib had any effect | ineffective | – | – | – |
| PEPD^G278D: recombinant and enzymatically inactive mutant of human peptidase D (PEPD), with replacement of glycine 278 by aspartic acid (protein, left off: small tags and cut ends) AAATGPSFWLGNETLKVPLALFALNRQRLCERLRKNPAVQAGSIVVLQGGEETQRYCTDTGVLFLQESFFHWAFGVTEPGCYGVIDVDTGKSTLFVPRLPASHATWMGKIHSKEHFKEKYAVDDVQYVDEIASVLTSQKPSVLLTLRGVNTDSGSVCREASFDGISKFEVNNTILHPEIVESRVFKTDMELEVLRYTNKISSEAHREVMKAVKVGMKEYGLESLFEHYCYSRGGMRHSSYTCICGSGENSAVLHYGHAGAPNDRTIQNGDMCLFDMDGEYYSVASDITCSFPRNGKFTADQKAVYEAVLLSSRAVMGAMKPGDWWPDIDRLADRIHLEELAHMGILSGSVDAMVQAHLGAVFMPHGLGHFLGIDVHDVGGYPEGVERIDEPGLRSLRTARHLQPGMVLTVEPGIYFIDHLLDEALADPARASFLNREVLQRFRGFGGVRIEEDVVVIDSGIELLTCVPRTVEEIEACMAGCDKAFTPFSGPK | – | – | decreased ERK phosphorylation | neither agent inhibited the growth | did not inhibit tumor growth |
